Test results: paper PMC2912425 (Biochemistry, 2010)

Tests used:
AUC = biological target: the molecule itself; assay: AUC
6xHis Grsp1_(2-400) = biological target: T1, 6xHis Grsp1_(2-400) (mouse, UniProt Q920B0-2 2-400); assay: SEC
T1 sequence (looked up): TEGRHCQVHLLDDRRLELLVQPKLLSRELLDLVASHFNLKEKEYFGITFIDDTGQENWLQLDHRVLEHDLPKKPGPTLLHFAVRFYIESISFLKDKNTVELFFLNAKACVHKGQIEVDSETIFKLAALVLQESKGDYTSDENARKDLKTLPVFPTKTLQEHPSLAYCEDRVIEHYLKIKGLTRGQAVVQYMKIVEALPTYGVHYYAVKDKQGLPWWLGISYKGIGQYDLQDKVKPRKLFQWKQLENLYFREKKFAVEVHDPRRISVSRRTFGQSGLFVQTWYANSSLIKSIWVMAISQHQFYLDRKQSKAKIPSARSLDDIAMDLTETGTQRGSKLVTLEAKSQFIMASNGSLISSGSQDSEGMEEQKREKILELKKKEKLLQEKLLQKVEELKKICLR

SEC = biological target: the molecule itself; assay: SEC

B1: 6xHis ARNO_(2-252) (domain or fragment, human, UniProt Q99418 2-252, looked up)
chain: EDGVYEPPDLTPEERMELENIRRRKQELLVEIQRLREELSEAMSEVEGLEANEGSKTLQRNRKMAMGRKKFNMDPKKGIQFLVENELLQNTPEEIARFLYKGEGLNKTAIGDYLGEREELNLAVLHAFVDLHEFTDLNLVQALRQFLWSFRLPGEAQKIDRMMEAFAQRYCLCNPGVFQSTDTCYVLSFAVIMLNTSLHNPNVRDKPGLERFVAMNRGINEGGDLPEELLRNLYDSIRNEPFKIPEDDGND
- stoichiometry N (AUC): 2

B2: 6xHis Cytohesin-1_(2-244) (domain or fragment, human, UniProt Q15438 2-244, looked up)
chain: EEDDSYVPSDLTAEERQELENIRRRKQELLADIQRLKDEIAEVANEIENLGSTEERKNMQRNKQVAMGRKKFNMDPKKGIQFLIENDLLKNTCEDIAQFLYKGEGLNKTAIGDYLGERDEFNIQVLHAFVELHEFTDLNLVQALRQFLWSFRLPGEAQKIDRMMEAFAQRYCQCNNGVFQSTDTCYVLSFAIIMLNTSLHNPNVKDKPTVERFIAMNRGINDGGDLPEELLRNLYESIKNEPF
- percent of Grsp1_(2-400) bound (6xHis Grsp1_(2-400)): > 90%

B3: 6xHis Grp1_(13-248) (domain or fragment, mouse, UniProt O08967 13-248, looked up)
chain: PEDLSLEEREELLDIRRRKKELIDDIERLKYEIAEVMTEIDNLTSVEESKTTQRNKQIAMGRKKFNMDPKKGIQFLIENDLLQSSPEDVAQFLYKGEGLNKTVIGDYLGERDDFNIKVLQAFVELHEFADLNLVQALRQFLWSFRLPGEAQKIDRMMEAFASRYCLCNPGVFQSTDTCYVLSFAIIMLNTSLHNHNVRDKPTAERFITMNRGINEGGDLPEELLRNLYESIKNEPF
- percent of Grsp1_(2-400) bound (6xHis Grsp1_(2-400)): > 90%
- stoichiometry N (SEC): 2
